This assay deals with human V1a receptor (human) (UniProt P37288). Kind of assay: cell-based or functional assay.
Sequence of human V1a receptor (human) (P37288 whole entry): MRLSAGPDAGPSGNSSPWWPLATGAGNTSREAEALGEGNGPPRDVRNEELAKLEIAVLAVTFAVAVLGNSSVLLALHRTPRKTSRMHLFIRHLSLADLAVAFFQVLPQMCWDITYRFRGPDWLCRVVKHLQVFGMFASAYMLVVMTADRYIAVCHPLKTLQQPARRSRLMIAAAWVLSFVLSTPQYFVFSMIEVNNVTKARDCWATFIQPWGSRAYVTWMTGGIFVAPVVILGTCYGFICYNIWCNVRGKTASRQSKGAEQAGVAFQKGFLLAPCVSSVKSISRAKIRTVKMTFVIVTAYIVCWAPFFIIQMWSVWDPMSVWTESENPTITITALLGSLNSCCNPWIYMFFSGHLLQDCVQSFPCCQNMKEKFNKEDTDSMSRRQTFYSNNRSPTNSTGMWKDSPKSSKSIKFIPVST

In the case of “Lysine vasopressin (LVP) (from UniProt P01183 20-28) (peptide)”, the Estimated V1a EC50 (calcium flux) is 1.65 nM and the V1a Highest agonist effect (% of AVP) is 92.1 % of AVP.
